In patent publication US20190127480A1 (Regeneron, published 2019):

Key:
[1] = target: T1, human CD3 expressed on cells (Jurkat cells; human T-cells of PBMC) (human, UniProt P09693 23-182; P20963 22-164); test: FACS titration on Jurkat cells (CD3+ human T-cell line)
T1 construct: whole, on cells; Native CD3 on the cell surface; also called hPBMC
Description: FACS data was acquired using the following protocol: Cells at 2×10⁵ per well were incubated with serially diluted antibodies for 30 min on ice. Post incubation, cells were washed and secondary antibody was added and incubated for an additional 30 minutes. After incubation, cells were washed, re-suspended in cold PBS containing 1% BSA and analyzed by flow cytometry with viable Jurkat cells gated by side and forward scatters. The EC₅₀s for cell binding titration were determined using Prism software with values calculated using a 4-parameter non-linear regression analysis.

[2] = target: T1, human CD3 expressed on cells (Jurkat …); test: cell-based or functional assay
[3] = target: cynomolgus monkey CD3 expressed on monkey T-cells (PBMCs) (cynomolgus monkey, UniProt Q95LI5 22-198; Q95LI8 22-171); test: cell-based or functional assay
Chain of cynomolgus monkey CD3 expressed on monkey T-cells (PBMCs) (Q95LI5 22-198, chain 1 of 2): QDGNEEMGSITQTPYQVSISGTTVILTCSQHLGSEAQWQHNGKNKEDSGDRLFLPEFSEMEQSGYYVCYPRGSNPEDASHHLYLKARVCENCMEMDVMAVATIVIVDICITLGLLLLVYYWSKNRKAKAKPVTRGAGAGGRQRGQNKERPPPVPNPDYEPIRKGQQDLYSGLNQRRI
Chain of cynomolgus monkey CD3 expressed on monkey T-cells (PBMCs) (Q95LI8 22-171, chain 2 of 2): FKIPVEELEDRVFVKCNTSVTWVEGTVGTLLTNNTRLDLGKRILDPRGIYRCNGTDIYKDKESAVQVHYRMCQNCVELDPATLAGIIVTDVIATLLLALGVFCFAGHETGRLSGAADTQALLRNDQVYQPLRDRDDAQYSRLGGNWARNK

[4] = target: T1, human CD3 expressed on cells (Jurkat …); test: cell-based or functional assay; remark: listed apart in the source

T1 sequence (chain, as listed by the source, chain 1 of 4): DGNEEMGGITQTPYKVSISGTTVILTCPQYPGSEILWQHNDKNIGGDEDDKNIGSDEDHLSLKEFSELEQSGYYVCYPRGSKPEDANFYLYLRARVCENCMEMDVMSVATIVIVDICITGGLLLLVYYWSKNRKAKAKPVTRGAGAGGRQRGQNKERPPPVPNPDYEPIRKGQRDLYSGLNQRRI
T1 sequence (chain, as listed by the source, chain 2 of 4): as the sequence (Q95LI8 22-171, chain 2 of 2) above, with V5I, K15N, V20I, T32S, N33D, N34I, A64T, N74S, L83V, R141H counted along it
T1 sequence (P09693 23-182, chain 3 of 4): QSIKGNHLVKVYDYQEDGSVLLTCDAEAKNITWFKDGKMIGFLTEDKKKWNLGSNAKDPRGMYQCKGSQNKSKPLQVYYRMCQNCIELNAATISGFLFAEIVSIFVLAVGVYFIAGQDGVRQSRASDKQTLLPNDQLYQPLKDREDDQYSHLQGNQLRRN
T1 sequence (P20963 22-164, chain 4 of 4): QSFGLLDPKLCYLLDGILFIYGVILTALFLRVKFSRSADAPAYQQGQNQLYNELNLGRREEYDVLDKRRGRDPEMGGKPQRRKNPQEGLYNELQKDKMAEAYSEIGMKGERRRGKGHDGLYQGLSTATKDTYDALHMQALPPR

| EC50 [1] | EC50 [M] mfPBMC Proliferation [3] | EC50 [M] hPBMC Proliferation [4] | Binder | U937 Cytotoxicity Human T-cells [2] |
| --- | --- | --- | --- | --- |
| 0.685 nM | 5.93e-13 M | 5.04e-12 M | H1H5778P (antibody, human IgG1, V domains shown, H1H: human IgG1 Fc) VH: EVQLVESGGGLVQPGRSLRLSCVASGFTFADFTMHWVRQAPGKGLEWVSGISWNSNSIDYADSVKGRFTISRDNAKKSLFLQMSSLRAEDTALYYCVKDRSGYSRFYYGMDVWGQGTTVTVSS VL: EIVMTQSPATLSVSPGERAILSCRASQNINSNLAWYQQKPGQAPRLLIYGASTRATGVPARFSGSGSGTEFTLTIRSLQSEDFAVYYCQQYYNWPITFGHGTRLEIK | 0.341 pM |
|  | 8.33e-13 M |  | H1H5769P (antibody, human IgG1, V domains shown) VH: EVQLVESGGGLVQPGRSLRLSCAASGFTFDDYTMHWVRQVPGKGLEWISGISWNSGSMDYADSVKGRFTISRDNARNSLFLQMNSVRTEDTALYYCAKDKSGYGSFYYGMDVWGQGTTVTVSS VL: EIVLTQSPGTLSLSPGDRATLSCRASQSVSSIYLAWYQQKPGQAPRLLIHGASTRATGIPDRFSGSGSGTDFTLTISRLEPEDFAVYYCQQRAHSPYTFGQGTKLEIK |  |
| 1.23 nM | 7.92e-13 M | 6.08e-12 M | H1H5781P (antibody, human IgG1, V domains shown, H1H: human IgG1 Fc) VH: EVQLVESGGGLVQPGRSLRLSCAASGFTFDDFTMHWVRQAPGKGLEWVSDISWNSGSIDYADSVKGRFTISRDNARNSLFLQMSSLRTEDTASYYCIKDKSGYGSYNYGLDVWGQGTTVTVSS VL: EIVLTQSPGTLSLSPGDRATLSCRASQSVSSIYLAWYQQKPGQAPRLLIHGASTRATGIPDRFSGSGSGTDFTLTISRLEPEDFALYYCHQRVSSPYTFGQGTKLEIK | 1.83 pM |
|  | 2.74e-12 M | 6.35e-12 M | H1H5771P (antibody, human IgG1, V domains shown) VH: EVQLVESGGGLVQPGRSLRLSCAASGFSFDNYAMHWVRQAPGQGLEWVSGISWNSGSRDYADSVKGRFTISRDNARNSLFLQMNSLSNEDTAMYYCAKDKSGYGSYFYGMDVWGQGTTVTVSS VL: EIVLTQSPGTLSLSPGDRATLSCRASQSIRNIYLAWYQQKPGQAPRLLIHGASTRATGIPDRFSGSGSGTDFTLTISRLEPEDFAVYYCQQRVSLPYTFGQGTKLEIK |  |
| 0.664 nM | 1.47e-12 M | 4.42e-12 M | H1H5772S (antibody, human IgG1, V domains shown, H1H: human IgG1 Fc; also called H1H5772P) VH: QVQLVESGGGLVQPGRSLRLSCAASGFSFDDYAMHWVRQAPGQGLEWVSGISWNGGSRDYADSVKGRFTISRDNARNSLFLQMNSLFTEDTALYYCAKDKSGYGSYFYGMDVWGQGTTVTVSS VL: EIVLTQSPGILSLSPGDRATLSCRASQSIRNIYLAWYQQKPGQAPRLLIHGASTRATGIPDRFSGSGSGTDFTLTISRLEPEDFAVYYCQQRVSSPYTFGQGTKLEIK | 0.689 pM |
| 0.762 nM | 3.13e-13 M | 3.44e-12 M | H1H5780P (antibody, human IgG1, V domains shown, H1H: human IgG1 Fc) VH: EVQLVESGGGLVQPGRSLRLSCAASGFTFDDYAMHWVRQAPGKGLEWVSGISWNGGSKDYADSVKGRFTISRDNTRNSLSLQMNSLRIEDTALYYCAKDKSGYGSFYYGLDVWGQGTTVTVSS VL: EIVLTQSPGTLSLSPGDRATLSCRASQSIRSIYLAWYQQKPGQAPRLLIHGASTRATGIPDRFSGSGSGTDFTLTISRLEPEDFAVYYCQQRVSSPYTFGQGTKLEIK | 4.03 pM |
|  | 2.81e-09 M |  | H1H5761P (antibody, human IgG1, V domains shown) VH: QVQLVESGGGVVQPGRSLRLSCAASGFTFSSYGMHWVRQAPGKGLEWVAVISYDGSNKYYADSVKGRFTISRDYSKNTLYLQMNSLRAEDTAVFYCAKGAMVRGVPYNYYYGMDVWGQGTTVTVSS VL: DIQMTQSPSSLSASVGDRVTITCRASQGIRNDLGWFQQKPGKAPKRLIYAASSLQSGVPSRFSGSGSGTEFTLTISSLQPEDFATYYCLQHNSYPYTFGQGTKLEIK |  |
| 0.88 nM | 4.06e-10 M | 3.27e-13 M | H1H5764P (antibody, human IgG1, V domains shown, H1H: human IgG1 Fc) VH: QVQLVESGGGVVQPGRSLRLSCAASGFTFRSFGMHWVRQAPGKGLEWVAVISYDGNYKYYADSVKGRFTISRDNSKNTLYLQMNSLRAEDTAVHYCAKGAMVRGVPYNFYYGMDVWGQGTTVTVSS VL: DIQMTQSPSSLSASVGDRVTITCRASQVIRNDLGWYQQKPGKAPKRLIYAASSLQSGIPSRFSGSGSGTEFTLTISSLQPEDFATYYCLQHNSYPYTFGQGTKLEIK |  |
| 3.53 nM | 2.01e-12 M | 4.62e-12 M | H1H5788P (antibody, V domains shown, H1H: human IgG1 Fc) VH: EVQLVESGGGLVQPGRSLRLSCAASGFTFDDYTMHWVRQAPGKGLEWVSGISWNSGSIGYADSVKGRFTISRDNAKNSLYLQMNSLRAEDTALFYCAKDQSGYGHYYYGMDVWGQGTTVTVSS VL: EIVMTQSPATLSVSPGERATLSCRASQSVSSNLAWYQQKPGQAPRLLIYGASTRATDIPARFSGSGSGTEFTLTISSLQSEDFAVYHCQQYNNWPLTFGGGTKVEIK | 15.4 pM |
